B1: unnamed (parent)
chain 1: METLCQRLNVCQDKILTHYENDSTDLRDHIDYWKHMRLECAIYYKAREMGFKHINHQVVPTLAVSKNKALQAIELQLTLETIYNSQYSNEKWTLQDVSLEVYLTAPTGCIKKHGYTVEVQFDGDICNTMHYTNWTHIYICEEASVTVVEGQVDYYGLYYVHEGIRTYFVQFKDDAEKYSKNKVWEVHAGGQVILCPTSVFSSNEVSSPEIIRQHLANHPAATHTKAVALGTEETQTTIQRPRSEPDTGNPCHTTKLLHRDSVDSAPILTAFNSSHKGRINCNSNTTPIVHLKGDANTLKCLRYRFKKHCTLYTAVSSTWHWTGHNVKHKSAIVTLTYDSEWQRDQFLSQVKIPKTITVSTGFMSI
chain 2: KAGRAEAEGLRAALAGAEVVRKNLEEGSQRELEEVQRLHQEQLSSLTQAHEEALSSLTSKAEGLEKSLSSLETRRAGEAKELAEAQREAELLRKQLSKTQEDLEAQVTLVENLRKYVGEQVPSEVHSQTWELERQKLLETMQHLQEDRDSLHATAELLQVRVQSLTHILALQEEELTRKVQPSDSLEPEFTRKCQSLLNRWREKVFALMVQLKAQELEHSDSVKQLKGQVASLQEKVTSQSQEQAILQRSLQDKAAEVEVERMGAKGLQLELSRAQEARRRWQQQTASAEEQLRLVVNAVSSSQIWLETTMAKVEGAAAQLPSLNNRLSYAVRKVHTIRGLIARKLALAQLRQESCPLPPPVTDVSLELQQLREERNRLDAELQLSARLIQQEVGRAREQGEAERQQLSKVAQQLEQELQQTQESLASLGLQLEVARQGQQESTEEAASLRQELTQQQELYGQALQEKVAEVETRLREQLSDTERRLNEARREHAKAVVSLRQIQRRAAQEKERSQELRRLQEEARKEEGQRLARRLQELERDKNLMLATLQQEGLLSRYKQQRLLTVLPSLLDKKKSVVSSPRPPECSASAPVAAAVPTRESIKGSLSVLLDDLQDLSEAISKEEAVCQGDNLDRCSSSNPQMSS
B2: unnamed (parent)
chain 1: B1 chain 1
chain 2: MDQNNSLPPYAQGLASPQGAMTPGIPIFSPMMPYGTGLTPQPIQNTNSLSILEEQQRQQQQQQQQQQQQQQQQQQQQQQQQQQQQQQQQQQQQQQAVAAAAVQQSTSQQATQGTSGQAPQLFHSQTLTTAPLPGTTPLYPSPMTPMTPITPATPASESSGIVPQLQNIVSTVNLGCKLDLKTIALRARNAEYNPKRFAAVIMRIREPRTTALIFSSGKMVCTGAKSEEQSRLAARKYARVVQKLGFPAKFLDFKIQNMVGSCDVKFPIRLEGLVLTHQQFSSYEPELFPGLIYRMIKPRIVLLIFVSGKVVLTGAKVRAEIYEAFENIYPILKGFRKTT

Variants of: B1
Assay: GPCA
Conditions: with partner chain of the complex shown;; read off a plot

Question: For chain 1 R37A, which ratio to parent is on record?
Answer: 0.06

Question: How did the ratio to parent turn out when chain 1 I73A was run?
Answer: 0.11

Question: For chain 1 E39A, which ratio to parent is on record?
Answer: 0.92

Question: chain 1 N181T was tested. Which ratio to parent did it give?
Answer: 0.93

Question: Which ratio to parent does the source give for chain 1 R27D here?
Answer: 0.66

Variants of: B2
Assay: GPCA
Conditions: with partner chain of the complex shown;; read off a plot

Question: For chain 1 R27D, which ratio to parent is on record?
Answer: 0.91

Question: With chain 1 R37A as the variant, how does the ratio to parent read?
Answer: 1.1

Question: Which ratio to parent does the source give for chain 1 N181T here?
Answer: 0.95

Question: How did the ratio to parent turn out when chain 1 I73A was run?
Answer: 0.97

Question: For chain 1 E39A, which ratio to parent is on record?
Answer: 1.2
